Biological target: T1, human CLEC-2 (C-type lectin-like receptor 2) (human, UniProt Q9P126 1-229)
T1 construct: whole, on cells; also called T-REx human CLEC-2 expressing 293 cells
Assay: column 'CLEC-2 binding' of the summary Table 10

T1 sequence (Q9P126 whole entry): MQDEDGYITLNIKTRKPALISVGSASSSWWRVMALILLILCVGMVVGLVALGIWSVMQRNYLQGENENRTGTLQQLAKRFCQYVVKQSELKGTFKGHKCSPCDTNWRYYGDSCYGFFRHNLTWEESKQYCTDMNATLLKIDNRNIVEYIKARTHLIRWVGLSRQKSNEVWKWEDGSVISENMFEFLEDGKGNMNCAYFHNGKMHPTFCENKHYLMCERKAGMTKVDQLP

B1: mutant rhodocytin derived from cell No. 3 (R28A and K31A) (ligand)
alpha: GLEDCDFGWSPYDQHCYQAFNEQKTWDEAEKFCRAQENGAHLASIESNGEADFVSWLISQKDELADEDYVWIGLRAQNKEQQCSSEWSDGSSVSYENLIDLHTKKCGALEKLTGFRKWVNYYCEQMHAFVCKLLPY
beta: DCPSGWSSYEGHCYKPFNEPKNWADAEAFCALQPKHSHLVSFQSAEEADFVVKLTRPRLKANLVWMGLSNIWHGCNWQWSDGARLNYKDWQEQSECLAFRGVHTEWLNMDCSSTCSFVCKFKA
modifications: α and β subunits are disulfide-linked. BN-PAGE shows a heterotrimer; each distinct subunit is given once.
notes: also called R28A, K31A
binding result: binds

From patent US20170320924A1 (UNIVERSITY OF YAMANASHI, published 2017)
